{"source": "patent US20200368361A1", "about": "(Regeneron, published 2020)", "data": [{"biological_target": "T1, human MSR1 with a C-terminal Myc tag expressed on HEK293.Myc.hMSR1 cells (human, UniProt P21757 1-451)", "T1 sequence (looked up)": "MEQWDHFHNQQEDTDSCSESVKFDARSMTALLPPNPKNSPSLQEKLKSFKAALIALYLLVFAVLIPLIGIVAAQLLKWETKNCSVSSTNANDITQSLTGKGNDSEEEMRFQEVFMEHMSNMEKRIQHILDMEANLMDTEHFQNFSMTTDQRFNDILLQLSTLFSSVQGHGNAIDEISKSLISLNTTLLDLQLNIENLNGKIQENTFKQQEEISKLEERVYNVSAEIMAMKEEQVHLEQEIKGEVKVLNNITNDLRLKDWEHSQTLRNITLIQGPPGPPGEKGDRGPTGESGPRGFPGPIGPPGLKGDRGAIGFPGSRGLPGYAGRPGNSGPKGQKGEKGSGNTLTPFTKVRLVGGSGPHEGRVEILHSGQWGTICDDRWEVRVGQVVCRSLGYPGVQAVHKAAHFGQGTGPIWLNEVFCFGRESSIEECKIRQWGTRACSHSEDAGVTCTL", "test": "cell-based or functional assay", "units": {"IC50 of inhibition of Dil-Oxidized LDL uptake": "nM", "IC50 of inhibition of Dil-Acetylated LDL uptake": "nM", "% Inhibition of Dil-Acetylated LDL uptake": "%", "% Inhibition of Dil-Oxidized LDL uptake": "%"}, "values": [{"binder": "H1H27734P-N297Q (antibody, V domains shown) VH: EVQLVESRGGLVQPGGSLRLSCAASGFTFSSYAMSWVRQAPGKGLEWVSAISGSGGSTFYADSVKGRFTISRDNSKNTVYLQMNSLRAEDTAVYYCAKALVLRFLEWLGDYWGQGTLVTVSS VL: DIQMTQSPSTLSASVGDRVTITCRASQSISSWLAWFQQKPGKAPKLLIYKASSLESGVPSRFSGSGSGTEFTLTISSLQPDDFATYYCQQYKSYWTFGQGTKVEIKR", "IC50 of inhibition of Dil-Oxidized LDL uptake": 5.5}, {"binder": "H2aM21228N (antibody, V domains shown) VH: VQLVESGGGLVQPGGSLRLSCAASGFTFSDHYMDWVRQAPGKGLEWVGRTRNKANSHTTEYAASVSGRFTISRDDSKNSLYLQMNSLKTEDTAVYYCTRAGIIGTLFDYWGQGTLVTVSS VL: not shown", "IC50 of inhibition of Dil-Acetylated LDL uptake": "> 100", "IC50 of inhibition of Dil-Oxidized LDL uptake": 3.1}, {"binder": "H2aM25685N (antibody, V domains shown) VH: QVQLVQSGAEVREPGASVKLSCKVSGYTLTELSIHWVRQAPGKGLEWMGGFDPEEGETVYAQKFRGRVTLTEDISPDTAYMELSSLTSEDTAVYYCATPRYCNNGICYDYWGQGTLITVSS VL: not shown", "% Inhibition of Dil-Acetylated LDL uptake": 22, "% Inhibition of Dil-Oxidized LDL uptake": 43, "IC50 of inhibition of Dil-Acetylated LDL uptake": "> 100", "IC50 of inhibition of Dil-Oxidized LDL uptake": "> 100"}, {"binder": "H1H27747P-N297Q (antibody, V domains shown) VH: QVQLVESGGAVVQPGRSLRLSCAASGFTFSYYGMHWVRQAPGKGLEWVAVISYDGSKKYYADSVKGRFTISRDNSKNTLYLQMNSLRAEDTAVYYCAKDLTVDFYYGMDVWGQGTTVTVSS VL: DIQMTQSPSSVSASVGDRVTITCRASQGISSWLAWYQQKPGKAPKLLIYATSSLQSGAPSRFSGSGSGTDFTLTISSLQPEDFATYFCQQANSFPYTFGQGTKLEIKR", "IC50 of inhibition of Dil-Acetylated LDL uptake": "> 100", "IC50 of inhibition of Dil-Oxidized LDL uptake": "> 100"}, {"binder": "H1H27754P-N297Q (antibody, V domains shown) VH: EVQLVESGGGLVQPGGSLRLSCAASGFTFRTYAMTWVRQAPGKGLDWVSAITGDGGNTYYADSVKGRFTISRDNSKNTLYLQMNSLRAEDTAIYYCAKDQRFSFALYYFDYWGQGTLVTVSS VL: DIQMTQSPSSVSASVGDRVTITCRASQGISSWLAWYQQKPGNAPKLLIYAAFSLQSGVPSRFSGSGSGTDFTLTISSLQPEDFATYYCQQANNFPWTFGQGTKVEIKR", "IC50 of inhibition of Dil-Acetylated LDL uptake": 1.8, "IC50 of inhibition of Dil-Oxidized LDL uptake": 4.6}, {"binder": "H1H27762P2-N297Q (antibody, V domains shown) VH: QVQLVQSGAEVKKPGSSVKVSCKASGGTFSRYDISWVRQAPGQGLEWMGGIIPIFGTSNYAQKFQGRVTITTDESTSTVYMELSSLRSEDTAVYYCARGGRYGWFDPWGQGTLVTVSS VL: not shown", "IC50 of inhibition of Dil-Acetylated LDL uptake": 2.9, "IC50 of inhibition of Dil-Oxidized LDL uptake": 4}, {"binder": "H1H27766P2-N297Q (antibody, V domains shown) VH: EVQLVESGGGLVQPGGSLRLSCAASGFTFSSFAMSWVRQAPGKELEWVSSISGRGGSTYYADSVRGRFTISRDNSKITLYLQMNSLRAEDTAVYYCAKDIVFRYTSSAYWYFDLWGRGTLVTVSS VL: not shown", "IC50 of inhibition of Dil-Acetylated LDL uptake": 3.5, "IC50 of inhibition of Dil-Oxidized LDL uptake": 3.7}, {"binder": "H1M21231N (antibody, V domains shown) VH: EVQLVESGGGLVQPGGSLRLSCAASGFTFSDHYMDWVRQAPGKGLEWVGRTRNKANSHTTEYTASVTGRFTISRDDSRNSLYLQMNSLKTEDTAVYYCVRAGIIGTLFDYWGQGTLVTVSS VL: DIQMTQFPSSLSASVGDRVTITCRASQSISSFLNWFQQKPGKAPKFLIYAASSLQSGVPSRFSGSGSGTDFTLTISSLQPEDFATYYCQQSYSSPPITFGQGTRLEIKR", "IC50 of inhibition of Dil-Acetylated LDL uptake": "> 20", "IC50 of inhibition of Dil-Oxidized LDL uptake": 3.7}, {"binder": "H2aM21235N (antibody, V domains shown) VH: EVQLVESGGGLVQPGGSLRLSCAASGFTFSDHYMDWVRQAPGKGLEWVGRTRNKANSYTTEYAASVSGRFTISRDDSKNSLYLQMNSLKTEDTAVYYCTRAGIIGTLFDYWGQGTLVTVSS VL: DIQMTQSPSSLSASVGDRVTITCRASQIIGRYLNWFQQKPGKVPKLLIYAASSLQRGVPSRFSGSGSGTDFTLTISSLQPEDFATYYCQQSYNTPPITFGQGTRLEIKR", "IC50 of inhibition of Dil-Acetylated LDL uptake": "> 100"}, {"binder": "H2bM21234N (antibody, V domains shown) VH: QVQLQESGPGLVKPSETLSLTCTVTGGSISRNYWSWIRQPPGKGLEWIGYIYYSGSIDYNPSLKSRVTISVDTSKNQFSLKLSSMTAADTAVYYCARDRWNWKYGMDVWGQGTTVIVSS VL: EIVLTQSPGTLSLSPGERATLSCRASQTVRNNYLAWYHQKPGQAPRLLIYGASSRATGIPDRFSGSGSGTDFTLTISRLEPEDFTVYYCHQYGNSPWTFGQGTKMEIKR", "IC50 of inhibition of Dil-Acetylated LDL uptake": 1.8, "IC50 of inhibition of Dil-Oxidized LDL uptake": 4.5}, {"binder": "H1H27751P-N297Q (antibody, V domains shown) VH: EVQLVESGGGLVQPGGSLRLSCAASGFTFSNYAMHWVRQAPGKGLEYVSAISSNGGSTYYADSVKGRITISRDNSKNTLYLQMGSLRAEDMAVYYCARGRPYYYYFGMDVWGQGTTVTVSS VL: not shown", "IC50 of inhibition of Dil-Acetylated LDL uptake": 1.6, "IC50 of inhibition of Dil-Oxidized LDL uptake": 2.9}, {"binder": "H1H27760P2-N297Q (antibody, V domains shown) VH: EVQLVESGGGLVQPGRSLRLSCAASGFTFDAYAMHWVRQAPGKGLEWVSGISWNSGSIGYADSVKGRFTISRDNAKNSLYLQMNSLREEDTALYYCAKDKILELYYYGMDVWGQGTTVTVSS VL: not shown", "IC50 of inhibition of Dil-Acetylated LDL uptake": 2.6, "IC50 of inhibition of Dil-Oxidized LDL uptake": 4.9}, {"binder": "H2aM21229N (antibody, V domains shown) VH: EVQLVESGGGLVKPGGSLRLSCAASGFTFSRYSMNWVRQAPGKGLEWVSSISSSSSYIYYGDTVKGRFTISRDNAKKSLYLQMNSLRAEDTAVYYCVRDRGQLVLYFDYWGQGTLVTVSS VL: DIQMTQSPASLSTSIRDRVTITCRASLSISSFLNWFQQRPGKAPKLLIYVASNLQSGVPSRFSDSGSGTDFTLTISSLQPEDFATYYCQQNYSTPPITFGQGTRLEIK", "IC50 of inhibition of Dil-Oxidized LDL uptake": "> 100"}, {"binder": "H1H27761P2-N297Q (antibody, V domains shown) VH: EVQLVESGGDLVQPGGSLRLSCSASGFTFNIYAMSWVRQAPGKGLEWVSGISGSGGSTYYADSVKGRFTISRDNSKNTLYFQMNSLRVEDTAVYYCAKKISSSSYYYYAMDVWGQGTTVTVSS VL: not shown", "IC50 of inhibition of Dil-Acetylated LDL uptake": "> 100", "IC50 of inhibition of Dil-Oxidized LDL uptake": 9.5}, {"binder": "H1H27739P-N297Q (antibody, V domains shown) VH: EVQLVESGGGLVQPGGSLRLSCTASGFTFSSYAMSWVRQAPGKGLEWVSAISGTGSSTYFTDSVKGRFAISRDNSKNTLYLQMNSLRAEDTAVYYCAKDGEWLSTVTLFDYWGQGTLVTVSS VL: EIVMTQSPATLSVSPGERATLSCRASQSVSSNLAWYQQKPGQAPRLLIYGASTRATGIPARFSGSGSGTDFTLTISSLQSEDFALYYCQQYFIWPPHPTFGPGTKVDIKR", "IC50 of inhibition of Dil-Oxidized LDL uptake": "> 100"}, {"binder": "H1H27759P2-N297Q (antibody, V domains shown) VH: EVQLVESGGGFVQPGGSLRLSCAASGFTFSSYAMSWVRQAPGKGLEWVSAISGTGSNTYYADSVKGRFTISRDNSKNTLYLQMNSLRAEDTAVYYCAKDRVTTVTYYFDYWGQGTLVTVSS VL: not shown", "IC50 of inhibition of Dil-Acetylated LDL uptake": "> 100", "IC50 of inhibition of Dil-Oxidized LDL uptake": "> 10"}, {"binder": "H1H27756P-N297Q (antibody, V domains shown) VH: QVQLVESGGGVVQPGRSLRLSCAASGFTFSNYDMHWVRQAPGKGLEWMAVISYDGINKYYADSVKGRFTISRDNSKNTLYLQMNSLRAEDTAVYYCAKGTYSWYFDLWGRGTLVTVSS VL: not shown", "IC50 of inhibition of Dil-Acetylated LDL uptake": "> 100"}]}]}
